The target of series [1] is T1, Cul3^NTD, N-terminal domain of Cullin3 residues 20-381 with stabilizing mutations I342R/L346D (human, UniProt Q13618 20-381, I342R | L346D).
T1 construct: residues 26-379 are in the final model; also called Cul3 N-terminal domain; source: E. coli BL21 DE3 Codon+, purified (NiNTA, TEV cleavage, Superdex S75 SEC); not shown: thioredoxin, N-terminal, cleaved; His tag, N-terminal, cleaved
Briefly: ITC; VP-ITC at 25°C in buffer A; KLHL3^BTB-BACK at 150 µM injected into Cul3^NTD at 15 µM; one-site binding model; a single titration for each protein. The following applies: both partners purified. (Isothermal titration calorimetry measures the heat released or taken up as one component is titrated into another.)

Series [2] deals with the molecule itself. The experiment in a line: SEC; Superdex S75 in buffer A (20 mM Tris pH 7.5, 150 mM NaCl, 1 mM TCEP, 10% v/v glycerol), elution monitored at 280 nm; proteins alone and an equimolar mixture. (Size exclusion chromatography separates by hydrodynamic size, large species first.)
Series [3] deals with the molecule itself. The experiment in a line: crystal structure; KLHL3^BTB-BACK (SER version) and Cul3^NTD mixed 1:1 at 10 mg/ml total; hanging drop, 0.1 M sodium tartrate, 17% w/v PEG 3350, room temperature; 3.5 Å; one chain of each in the asymmetric unit, BTB homodimer by a crystallographic 2-fold.
In series [4] the target is T1, Cul3^NTD, N-terminal domain of Cullin3 …. Described as above. The following applies: both partners purified.

Changes are numbered by the printed parent chain. Numbers in names are those of the source.

What is called Kd is the equilibrium constant for the complex coming apart. High values mean weaker binding, low ones tighter binding. A word on the stoichiometry N: it is a count of units in the complex or per binding partner.

T1 sequence (Q13618 20-381 I342R/L346D): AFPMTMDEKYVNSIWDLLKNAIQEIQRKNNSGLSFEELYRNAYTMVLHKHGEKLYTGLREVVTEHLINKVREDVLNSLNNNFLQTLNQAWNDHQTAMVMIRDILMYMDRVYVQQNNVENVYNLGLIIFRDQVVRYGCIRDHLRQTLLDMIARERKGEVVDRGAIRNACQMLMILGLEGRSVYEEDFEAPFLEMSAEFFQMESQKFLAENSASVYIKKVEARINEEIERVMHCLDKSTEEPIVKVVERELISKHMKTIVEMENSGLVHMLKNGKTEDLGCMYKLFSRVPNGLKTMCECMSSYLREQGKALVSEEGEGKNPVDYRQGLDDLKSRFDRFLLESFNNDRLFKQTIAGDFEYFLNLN

B1: KLHL3^BTB-BACK, human KLHL3 residues 27-276, wild type (domain or fragment, UniProt Q9UH77 27-276, looked up)
chain: TVNPAHMGKAFKVMNELRSKQLLCDVMIVAEDVEIEAHRVVLAACSPYFCAMFTGDMSESKAKKIEIKDVDGQTLSKLIDYIYTAEIEVTEENVQVLLPAASLLQLMDVRQNCCDFLQSQLHPTNCLGIRAFADVHTCTDLLQQANAYAEQHFPEVMLGEEFLSLSLDQVCSLISSDKLTVSSEEKVFEAVISWINYEKETRLEHMAKLMEHVRLPLLPRDYLVQTVEEEALIKNNNTCKDFLIEAMKYH
notes: KLHL3, human, residues 27-276 (BTB and BACK domains), without the surface entropy reduction mutations; PDB 4HXI holds the same limits with K87A/K89A/K90A; Removal of the His tag is told only for Cul3^NTD; also called wild-type KLHL3^BTB-BACK; source: E. coli BL21 DE3 Codon+, purified (NiNTA, Superdex S75 SEC)
As to B1, in series [1], binding was put at a Kd of 108 nM and the “stoichiometry N” value turned out to be 1. In addition, in series [2], the “stoichiometry N” value stood at 2.

B2: KLHL3^BTB-BACK M78V (PHAII mutation) (domain or fragment, human, UniProt Q9UH77 27-276, looked up)
chain: B1 chain with M52V
notes: KLHL3, human, residues 27-276, PHAII patient mutation M78V introduced into the wild-type KLHL3^BTB-BACK plasmid; PDB 4HXI holds the same limits with K87A/K89A/K90A and without M78V; source: E. coli BL21 DE3 Codon+, purified (NiNTA, Superdex S75 SEC)
In the case of B2, the “stoichiometry N” value in series [2] was found to be 2.

B3: KLHL3^BTB-BACK A77E (PHAII mutation) (domain or fragment, human, UniProt Q9UH77 27-276, looked up)
chain: B1 chain with A51E
notes: KLHL3, human, residues 27-276, PHAII patient mutation A77E introduced into the wild-type KLHL3^BTB-BACK plasmid; PDB 4HXI holds the same limits with K87A/K89A/K90A and without A77E; source: E. coli BL21 DE3 Codon+, purified (NiNTA, Superdex S75 SEC)
Regarding B3, the “stoichiometry N” value in series [2] was found to be 2.

B4: KLHL3^BTB-BACK E85A (PHAII mutation) (domain or fragment, human, UniProt Q9UH77 27-276, looked up)
chain: B1 chain with E59A
notes: KLHL3, human, residues 27-276, PHAII patient mutation E85A introduced into the wild-type KLHL3^BTB-BACK plasmid; PDB 4HXI holds the same limits with K87A/K89A/K90A and without E85A; source: E. coli BL21 DE3 Codon+, purified (NiNTA, Superdex S75 SEC)
Consider B4, for which the “stoichiometry N” value in series [2] was 2.

B5: KLHL3^BTB-BACK, human KLHL3 residues 27-276, surface entropy reduction version K87A/K89A/K90A used in crystallization (domain or fragment, UniProt Q9UH77 27-276, looked up)
chain: B1 chain with K61A, K63A, K64A
notes: KLHL3, human, residues 27-276 (BTB and BACK domains) with three lysines mutated to alanine for crystallization; residues 32-223 are in the final model; also called KLHL3^BTB-BACK (SER); source: E. coli BL21 DE3 Codon+, purified (NiNTA, Superdex S75 SEC)
Regarding B5, the binding result in series [3] and in series [4] was “binds” throughout.

B6: KLHL3^BTB-BACK C164F (PHAII mutation) (domain or fragment, human, UniProt Q9UH77 27-276, looked up)
chain: B1 chain with C138F
notes: KLHL3, human, residues 27-276, PHAII patient mutation C164F introduced into the wild-type KLHL3^BTB-BACK plasmid; PDB 4HXI holds the same limits with K87A/K89A/K90A and without C164F; source: E. coli BL21 DE3 Codon+, purified (NiNTA, Superdex S75 SEC)
B6 registered a Kd in series [1] of 4100 nM. For the same molecule, the “stoichiometry N” value in series [2] worked out at 2.

The values are drawn from PMC3616122, “Crystal Structure of KLHL3 in Complex with Cullin3” (PLoS ONE, 2013).
